Paper PMC7713142, “Crystal structure of the yeast heterodimeric ADAT2/3 deaminase”
One block for each molecule: values may come before it.

Key:
[1] = target: Saccharomyces cerevisiae ADAT3 (S. cerevisiae)
[2] = target: ScADAT2 (TAD2);ScADAT3 K50A (Saccharomyces cerevisiae;Saccharomyces …, UniProt P47058;Q9URQ3 1-250;1-322, |K50A); assay: EMSA; 2 uM tRNA, varied enzyme:tRNA molar ratios; EMSA: 20 mM Tris-HCl pH 8.0, 1 mM DTT, 2 uM tRNA, on ice 60 min; 6% native PAGE, 40 mM Tris-HCl pH 9.0 running buffer; conditions: protein: recombinant;recombinant; tags: none (untagged in co-expression);N-terminal His6, cleaved (PreScission); copies: 1;1; label: none; tRNA cloverleaf
ScADAT2 (TAD2);ScADAT3 K50A, sequence (P47058 whole entry, chain 1 of 2): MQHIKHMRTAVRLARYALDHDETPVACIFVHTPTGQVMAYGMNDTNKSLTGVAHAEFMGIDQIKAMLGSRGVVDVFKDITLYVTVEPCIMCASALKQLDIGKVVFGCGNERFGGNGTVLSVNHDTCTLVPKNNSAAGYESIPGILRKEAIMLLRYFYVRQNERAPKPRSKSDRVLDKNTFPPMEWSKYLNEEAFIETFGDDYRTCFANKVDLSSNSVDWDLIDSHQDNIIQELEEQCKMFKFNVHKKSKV
ScADAT2 (TAD2);ScADAT3 K50A, sequence (Q9URQ3 whole entry K50A, chain 2 of 2): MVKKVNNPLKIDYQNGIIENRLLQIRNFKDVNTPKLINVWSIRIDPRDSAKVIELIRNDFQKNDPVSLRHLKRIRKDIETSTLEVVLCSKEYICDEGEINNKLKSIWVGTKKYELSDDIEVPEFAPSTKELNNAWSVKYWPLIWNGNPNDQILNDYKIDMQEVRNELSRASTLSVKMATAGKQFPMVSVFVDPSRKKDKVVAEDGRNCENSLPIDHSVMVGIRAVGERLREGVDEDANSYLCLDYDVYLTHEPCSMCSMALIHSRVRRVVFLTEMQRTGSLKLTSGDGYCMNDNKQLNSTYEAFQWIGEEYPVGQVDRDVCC

[3] = target: ScADAT2 (TAD2);ScADAT3 (TAD3) WT (Saccharomyces cerevisiae;Saccharomyces …, UniProt P47058;Q9URQ3 1-250;1-322, |); assay: as above; conditions: protein: recombinant;recombinant; tags: none (untagged in co-expression);N-terminal His6, cleaved (PreScission); copies: 1;1; label: none; tRNA cloverleaf
ScADAT2 (TAD2);ScADAT3 (TAD3) WT, sequence (P47058 whole entry, chain 1 of 2): as the sequence (P47058 whole entry, chain 1 of 2) above
ScADAT2 (TAD2);ScADAT3 (TAD3) WT, sequence (Q9URQ3 whole entry, chain 2 of 2): as the sequence (Q9URQ3 whole entry K50A, chain 2 of 2) above, with A50K counted along it

[4] = target: ScADAT2 (TAD2);ScADAT3 R75A/K76A (Saccharomyces cerevisiae;Saccharomyces …, UniProt P47058;Q9URQ3 1-250;1-322, |R75A;K76A); assay: as above; conditions: protein: recombinant;recombinant; tags: none (untagged in co-expression);N-terminal His6, cleaved (PreScission); copies: 1;1; label: none; tRNA cloverleaf
ScADAT2 (TAD2);ScADAT3 R75A/K76A, sequence (P47058 whole entry, chain 1 of 2): as the sequence (P47058 whole entry, chain 1 of 2) above
ScADAT2 (TAD2);ScADAT3 R75A/K76A, sequence (Q9URQ3 whole entry R75A/K76A, chain 2 of 2): as the sequence (Q9URQ3 whole entry K50A, chain 2 of 2) above, with A50K, R75A, K76A counted along it

[5] = target: ScADAT2 (TAD2);ScADAT3 K72A/R73A (Saccharomyces cerevisiae;Saccharomyces …, UniProt P47058;Q9URQ3 1-250;1-322, |K72A;R73A); assay: as above; conditions: protein: recombinant;recombinant; tags: none (untagged in co-expression);N-terminal His6, cleaved (PreScission); copies: 1;1; label: none; tRNA cloverleaf
ScADAT2 (TAD2);ScADAT3 K72A/R73A, sequence (P47058 whole entry, chain 1 of 2): as the sequence (P47058 whole entry, chain 1 of 2) above
ScADAT2 (TAD2);ScADAT3 K72A/R73A, sequence (Q9URQ3 whole entry K72A/R73A, chain 2 of 2): as the sequence (Q9URQ3 whole entry K50A, chain 2 of 2) above, with A50K, K72A, R73A counted along it

[6] = target: ScADAT2 (TAD2);ScADAT3 Del30-148 (Saccharomyces cerevisiae;Saccharomyces …, UniProt P47058;Q9URQ3 1-250;1-322, |del30-148); assay: as above; conditions: protein: recombinant;recombinant; tags: none (untagged in co-expression);N-terminal His6, cleaved (PreScission); copies: 1;1; label: none; tRNA cloverleaf
ScADAT2 (TAD2);ScADAT3 Del30-148, sequence (P47058 whole entry, stated change not applied, chain 1 of 2): as the sequence (P47058 whole entry, chain 1 of 2) above
ScADAT2 (TAD2);ScADAT3 Del30-148, sequence (Q9URQ3 other isoform, or with tags, fused parts or gaps |del30-148, chain 2 of 2): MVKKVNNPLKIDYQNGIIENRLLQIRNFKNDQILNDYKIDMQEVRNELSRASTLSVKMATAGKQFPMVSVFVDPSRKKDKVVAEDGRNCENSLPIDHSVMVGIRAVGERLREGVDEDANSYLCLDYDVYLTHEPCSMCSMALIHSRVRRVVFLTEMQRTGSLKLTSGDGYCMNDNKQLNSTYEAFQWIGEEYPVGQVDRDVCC

- in vitro deamination of tRNA^Ala by the heterodimer (30 nM enzyme), coupled to cleavage by EcEndoV, against WT [1]: > 50 % activity
Molecule: ScADAT2/F57A (enzyme)

- in vitro deamination of tRNA^Ala by the heterodimer (30 nM enzyme), coupled to cleavage by EcEndoV, against WT [1]: > 50 % activity
Molecule: ScADAT2/I89A (enzyme)

- in vitro deamination of tRNA^Ala by the heterodimer (30 nM enzyme), coupled to cleavage by EcEndoV, against WT [1]: > 50 % activity
Molecule: ScADAT2/Q97A (enzyme)

- in vitro deamination of tRNA^Ala by the heterodimer (30 nM enzyme), coupled to cleavage by EcEndoV, against WT [1]: > 50 % activity
Molecule: ScADAT2/S69A (enzyme)

- in vitro deamination of tRNA^Ala by the heterodimer (30 nM enzyme), coupled to cleavage by EcEndoV, against WT [1]: > 50 % activity
Molecule: ScADAT2/L119A/V121A (enzyme)

- in vitro deamination of tRNA^Ala by the heterodimer (30 nM enzyme), coupled to cleavage by EcEndoV, against WT [1]: > 50 % activity
Molecule: ScADAT2/S93A (enzyme)

- in vitro deamination of tRNA^Ala by the heterodimer (30 nM enzyme), coupled to cleavage by EcEndoV, against WT [1]: > 50 % activity
Molecule: ScADAT2-D124A/T125A/C126A/T127A (enzyme)

- in vitro deamination of tRNA^Ala by the heterodimer (30 nM enzyme), coupled to cleavage by EcEndoV, against WT [1]: > 50 % activity
Molecule: ScADAT2/V52A (enzyme)

- in vitro deamination of tRNA^Ala by the heterodimer (30 nM enzyme), coupled to cleavage by EcEndoV, against WT [1]: > 50 % activity
Molecule: ScADAT2/L49A (enzyme)

B1: tRNAAla (structured_RNA)
RNA: GGGCGUGUGGCGUAGUCGGUAGCGCGCUCCCUUAGCAUGGGAGAGGUCUCCGGUUCGAUUCCGGACUCGUCCACCA
modifications: none (in vitro transcript)
- binding result [2]: no binding
- binding result [3]: binds
- binding result [4]: no binding
- binding result [5]: no binding
- binding result [6]: no binding
